These are literature values, as cited in PMC9406205.

The target of data set [1] is PRK (Chlamydomonas reinhardtii) (UniProt P19824). The data set is described as follows: surface plasmon resonance. A general note: SPR reads the build-up and loss of mass on a sensor chip optically.
The target in data set [2] is GAPDH (Chlamydomonas reinhardtii) (UniProt P50362). Description: surface plasmon resonance.

UniProt P19824, sequence (P19824 32-375): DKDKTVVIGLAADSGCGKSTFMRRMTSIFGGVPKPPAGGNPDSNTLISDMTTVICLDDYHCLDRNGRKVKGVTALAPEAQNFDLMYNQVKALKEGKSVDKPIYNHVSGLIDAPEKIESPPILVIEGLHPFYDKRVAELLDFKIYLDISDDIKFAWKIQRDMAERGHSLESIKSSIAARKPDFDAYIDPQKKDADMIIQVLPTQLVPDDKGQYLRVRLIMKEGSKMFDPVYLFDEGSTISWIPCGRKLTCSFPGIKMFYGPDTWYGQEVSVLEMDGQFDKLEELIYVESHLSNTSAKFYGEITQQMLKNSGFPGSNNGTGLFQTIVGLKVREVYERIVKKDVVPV

As for “GAPDH-CP12 subcomplex (from UniProt P50362)”, the Kd (usually the constant that tells how readily two partners part at equilibrium) in data set [1] is 60 nM.
Take CP12 (from UniProt A6Q0K5): the Kd in data set [2] was 0.44 nM.
